Data on 125 sequences can be found in the supplement of paper PMC9112550, “Optimization of the antimicrobial peptide Bac7 by deep mutational scanning” (BMC Biology, 2022).

The test system of this series is Escherichia coli TOP10. The experiment in a line: shrunken log2 fold change of peptide-encoding DNA abundance (4.5 h post-induction vs induction); higher = less antimicrobial activity (less host growth inhibition). As to conditions: time post-induction: 4.5 h; library: site-saturation at positions 5, 18, 19, 20.
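Further: peptides expressed intracellularly from a pBAD plasmid library in pooled LB shake-flask culture, induced with 0.3% L-arabinose, DNA abundance read by NGS, three biological replicates, DESeq2 with apeglm shrinkage.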

As for RRIRTRPPRLPRPRPRPYLSPRP, the “shrunken log2 fold change” value was 0.0138.

As to RRIRRRPPRLPRPRPRPHFNPRP, the “shrunken log2 fold change” value was -0.11.

For the sequence RRIRERPPRLPRPRPRPTNAPRP, the “shrunken log2 fold change” value is -0.0659.

In the case of RRIRDRPPRLPRPRPRPENTPRP, the “shrunken log2 fold change” value stood at 0.17.

In the case of RRIRGRPPRLPRPRPRPPNVPRP, the “shrunken log2 fold change” value was found to be 0.431.

Turning to RRIRRRPPRLPRPRPRPEEKPRP, the “shrunken log2 fold change” value is -0.00133.

Regarding RRIRVRPPRLPRPRPRPNYEPRP, the “shrunken log2 fold change” value was -0.0505.

For RRIRYRPPRLPRPRPRPTIKPRP, the “shrunken log2 fold change” value is -0.151.

Consider RRIRMRPPRLPRPRPRPLKYPRP, for which the “shrunken log2 fold change” value was -0.0456.

Regarding RRIRSRPPRLPRPRPRPPRNPRP, the “shrunken log2 fold change” value was 0.415.

For RRIRMRPPRLPRPRPRPWWIPRP, the “shrunken log2 fold change” value was -0.442.

RRIRPRPPRLPRPRPRPQIYPRP: the “shrunken log2 fold change” value is -0.858.

As for RRIRTRPPRLPRPRPRPRVKPRP, the “shrunken log2 fold change” value was -0.0675.

As for RRIRLRPPRLPRPRPRPHFNPRP, the “shrunken log2 fold change” value was -0.386.

As to RRIRPRPPRLPRPRPRPYMLPRP, the “shrunken log2 fold change” value is -0.781.

For RRIRMRPPRLPRPRPRPFKAPRP, the “shrunken log2 fold change” value was -0.114.

On to RRIRDRPPRLPRPRPRPHENPRP, for which the “shrunken log2 fold change” value is 0.116.

With RRIRFRPPRLPRPRPRPWWTPRP, the “shrunken log2 fold change” value was found to be 0.0245.

On to RRIRHRPPRLPRPRPRPFRQPRP, for which the “shrunken log2 fold change” value was 0.0583.

On to RRIRCRPPRLPRPRPRPCSCPRP, for which the “shrunken log2 fold change” value was -1.33.

Take RRIRIRPPRLPRPRPRPHWWPRP: the “shrunken log2 fold change” value was found to be 0.133.

For RRIRNRPPRLPRPRPRPHGNPRP, the “shrunken log2 fold change” value was -0.189.

On to RRIRQRPPRLPRPRPRPNSSPRP, for which the “shrunken log2 fold change” value is -1.14.

Regarding RRIRDRPPRLPRPRPRPHDWPRP, the “shrunken log2 fold change” value came to 0.807.

Turning to RRIRWRPPRLPRPRPRPFVAPRP, the “shrunken log2 fold change” value is 0.292.

In the case of RRIRARPPRLPRPRPRPSNDPRP, the “shrunken log2 fold change” value is -0.213.

RRIRLRPPRLPRPRPRPFFPPRP: the “shrunken log2 fold change” value was -0.225.

Consider RRIRFRPPRLPRPRPRPNQIPRP, for which the “shrunken log2 fold change” value was -0.23.

As for RRIRARPPRLPRPRPRPPALPRP, the “shrunken log2 fold change” value was 0.415.

On to RRIRPRPPRLPRPRPRPLAWPRP, for which the “shrunken log2 fold change” value turned out to be 0.439.

Consider RRIRERPPRLPRPRPRPTIWPRP, for which the “shrunken log2 fold change” value is -0.222.

As to RRIRYRPPRLPRPRPRPAINPRP, the “shrunken log2 fold change” value was -0.051.

Take RRIRWRPPRLPRPRPRPNRNPRP: the “shrunken log2 fold change” value was -0.602.

Consider RRIRNRPPRLPRPRPRPGLCPRP, for which the “shrunken log2 fold change” value was found to be 0.685.

Consider RRIRTRPPRLPRPRPRPLKDPRP, for which the “shrunken log2 fold change” value amounted to 0.0122.

As to RRIRVRPPRLPRPRPRPCVHPRP, the “shrunken log2 fold change” value was -0.192.

For RRIRPRPPRLPRPRPRPHLFPRP, the “shrunken log2 fold change” value was -0.0473.

As to RRIRDRPPRLPRPRPRPKMVPRP, the “shrunken log2 fold change” value is 0.223.

Take RRIRPRPPRLPRPRPRPMRDPRP: the “shrunken log2 fold change” value is 0.467.

Consider RRIRHRPPRLPRPRPRPPLKPRP, for which the “shrunken log2 fold change” value is -0.00744.

For RRIRYRPPRLPRPRPRPHDCPRP, the “shrunken log2 fold change” value is -0.00448.

Take RRIRFRPPRLPRPRPRPMDWPRP: the “shrunken log2 fold change” value came to 0.314.

For RRIRGRPPRLPRPRPRPAVKPRP, the “shrunken log2 fold change” value is 0.0152.

With RRIRIRPPRLPRPRPRPDEMPRP, the “shrunken log2 fold change” value was -0.15.

As to RRIRIRPPRLPRPRPRPTPRPRP, the “shrunken log2 fold change” value was 0.466.

For RRIRCRPPRLPRPRPRPEKAPRP, the “shrunken log2 fold change” value amounted to 0.0655.

Consider RRIRRRPPRLPRPRPRPVGWPRP, for which the “shrunken log2 fold change” value was 0.666.

RRIRSRPPRLPRPRPRPYSWPRP: the “shrunken log2 fold change” value was -0.244.

In the case of RRIRQRPPRLPRPRPRPAPYPRP, the “shrunken log2 fold change” value amounted to 0.204.

As for RRIRWRPPRLPRPRPRPWESPRP, the “shrunken log2 fold change” value was -0.0449.

Turning to RRIRCRPPRLPRPRPRPEGHPRP, the “shrunken log2 fold change” value came to 0.38.

Consider RRIRDRPPRLPRPRPRPISQPRP, for which the “shrunken log2 fold change” value is 0.12.

On to RRIRLRPPRLPRPRPRPRPNPRP, for which the “shrunken log2 fold change” value was 0.348.

With RRIRTRPPRLPRPRPRPGVDPRP, the “shrunken log2 fold change” value is 0.0151.

Take RRIRWRPPRLPRPRPRPVGQPRP: the “shrunken log2 fold change” value stood at 0.413.

Turning to RRIRGRPPRLPRPRPRPNPMPRP, the “shrunken log2 fold change” value was found to be 0.17.

RRIRYRPPRLPRPRPRPSWMPRP: the “shrunken log2 fold change” value is -0.534.

As for RRIRIRPPRLPRPRPRPSCVPRP, the “shrunken log2 fold change” value was -0.544.

In the case of RRIRNRPPRLPRPRPRPFMPPRP, the “shrunken log2 fold change” value was -0.209.

Regarding RRIRRRPPRLPRPRPRPTSDPRP, the “shrunken log2 fold change” value turned out to be 0.256.

In the case of RRIRVRPPRLPRPRPRPHNYPRP, the “shrunken log2 fold change” value is -0.181.

RRIRKRPPRLPRPRPRPFQQPRP: the “shrunken log2 fold change” value worked out at 0.202.

In the case of RRIRPRPPRLPRPRPRPVYCPRP, the “shrunken log2 fold change” value is -0.375.

Consider RRIRKRPPRLPRPRPRPPEDPRP, for which the “shrunken log2 fold change” value amounted to 3.39.

On to RRIRCRPPRLPRPRPRPPDAPRP, for which the “shrunken log2 fold change” value came to 0.354.

As to RRIRARPPRLPRPRPRPPQDPRP, the “shrunken log2 fold change” value worked out at 1.13.

For the sequence RRIRCRPPRLPRPRPRPRWEPRP, the “shrunken log2 fold change” value was found to be 0.342.

For the sequence RRIRRRPPRLPRPRPRPNLAPRP, the “shrunken log2 fold change” value was 0.176.

Turning to RRIRWRPPRLPRPRPRPNNLPRP, the “shrunken log2 fold change” value is -0.513.

On to RRIRNRPPRLPRPRPRPSYRPRP, for which the “shrunken log2 fold change” value was -0.102.

As for RRIRPRPPRLPRPRPRPYVSPRP, the “shrunken log2 fold change” value is 0.00613.

In the case of RRIRNRPPRLPRPRPRPLPGPRP, the “shrunken log2 fold change” value was determined as 0.143.

With RRIRTRPPRLPRPRPRPRIYPRP, the “shrunken log2 fold change” value was -0.304.

In the case of RRIRYRPPRLPRPRPRPIIAPRP, the “shrunken log2 fold change” value was -1.18.

Consider RRIRIRPPRLPRPRPRPISWPRP, for which the “shrunken log2 fold change” value is -0.392.

For RRIRVRPPRLPRPRPRPSVEPRP, the “shrunken log2 fold change” value is -0.0446.

As to RRIRWRPPRLPRPRPRPWRKPRP, the “shrunken log2 fold change” value was -0.139.

Consider RRIRTRPPRLPRPRPRPAWEPRP, for which the “shrunken log2 fold change” value came out at 0.174.

As for RRIRGRPPRLPRPRPRPNWNPRP, the “shrunken log2 fold change” value is -0.00809.

For RRIRHRPPRLPRPRPRPKCTPRP, the “shrunken log2 fold change” value was -0.0702.

In the case of RRIRARPPRLPRPRPRPKMWPRP, the “shrunken log2 fold change” value was found to be 0.553.

With RRIRPRPPRLPRPRPRPQFYPRP, the “shrunken log2 fold change” value is -0.592.

For the sequence RRIRYRPPRLPRPRPRPEAKPRP, the “shrunken log2 fold change” value is -0.109.

For RRIRSRPPRLPRPRPRPNCSPRP, the “shrunken log2 fold change” value is -0.0305.

Consider RRIRVRPPRLPRPRPRPSIWPRP, for which the “shrunken log2 fold change” value is -0.205.

Regarding RRIRNRPPRLPRPRPRPIEPPRP, the “shrunken log2 fold change” value was -0.00208.

In the case of RRIRERPPRLPRPRPRPIDKPRP, the “shrunken log2 fold change” value was -0.321.

On to RRIRMRPPRLPRPRPRPVHEPRP, for which the “shrunken log2 fold change” value is -0.232.

Take RRIRWRPPRLPRPRPRPEMVPRP: the “shrunken log2 fold change” value was -0.222.

Consider RRIRCRPPRLPRPRPRPNIDPRP, for which the “shrunken log2 fold change” value is -0.539.

Take RRIRIRPPRLPRPRPRPTCVPRP: the “shrunken log2 fold change” value was 0.00176.

As for RRIRRRPPRLPRPRPRPCCTPRP, the “shrunken log2 fold change” value is -0.0151.

RRIRKRPPRLPRPRPRPQWNPRP: the “shrunken log2 fold change” value was -0.105.

For the sequence RRIRARPPRLPRPRPRPAAIPRP, the “shrunken log2 fold change” value stood at 0.845.

Turning to RRIRRRPPRLPRPRPRPTFGPRP, the “shrunken log2 fold change” value is 0.337.

In the case of RRIRGRPPRLPRPRPRPHRAPRP, the “shrunken log2 fold change” value was determined as 0.108.

For the sequence RRIRDRPPRLPRPRPRPERGPRP, the “shrunken log2 fold change” value came to 0.689.

For the sequence RRIRSRPPRLPRPRPRPWVWPRP, the “shrunken log2 fold change” value came out at 0.39.

As to RRIRLRPPRLPRPRPRPVDTPRP, the “shrunken log2 fold change” value is -0.142.

RRIRPRPPRLPRPRPRPKKAPRP: the “shrunken log2 fold change” value was determined as 0.129.

For the sequence RRIRCRPPRLPRPRPRPECDPRP, the “shrunken log2 fold change” value was 0.346.

With RRIRIRPPRLPRPRPRPVRPPRP, the “shrunken log2 fold change” value was found to be 0.664.

For the sequence RRIRGRPPRLPRPRPRPHNDPRP, the “shrunken log2 fold change” value is 0.0426.

Take RRIRSRPPRLPRPRPRPELKPRP: the “shrunken log2 fold change” value is -0.0512.

Consider RRIRCRPPRLPRPRPRPHWIPRP, for which the “shrunken log2 fold change” value is -0.761.

Regarding RRIRPRPPRLPRPRPRPPMEPRP, the “shrunken log2 fold change” value turned out to be 0.127.

RRIRRRPPRLPRPRPRPRNDPRP: the “shrunken log2 fold change” value is 0.195.

On to RRIRPRPPRLPRPRPRPSHRPRP, for which the “shrunken log2 fold change” value turned out to be 0.0628.

Consider RRIRYRPPRLPRPRPRPAPQPRP, for which the “shrunken log2 fold change” value was found to be 0.416.

For the sequence RRIRMRPPRLPRPRPRPLESPRP, the “shrunken log2 fold change” value is 2.66.

For the sequence RRIRLRPPRLPRPRPRPQNCPRP, the “shrunken log2 fold change” value was determined as 0.0117.

With RRIRCRPPRLPRPRPRPCTTPRP, the “shrunken log2 fold change” value is -0.427.

As to RRIRYRPPRLPRPRPRPCMLPRP, the “shrunken log2 fold change” value was -1.02.

Turning to RRIRIRPPRLPRPRPRPDEDPRP, the “shrunken log2 fold change” value was -0.00875.

Take RRIRERPPRLPRPRPRPFIMPRP: the “shrunken log2 fold change” value is -0.0895.

Consider RRIRNRPPRLPRPRPRPTFAPRP, for which the “shrunken log2 fold change” value came to 0.343.

In the case of RRIRIRPPRLPRPRPRPGPMPRP, the “shrunken log2 fold change” value came out at 0.0608.

For RRIRMRPPRLPRPRPRPVWGPRP, the “shrunken log2 fold change” value is 0.185.

In the case of RRIRERPPRLPRPRPRPYRCPRP, the “shrunken log2 fold change” value was -0.0874.

Turning to RRIRGRPPRLPRPRPRPKKLPRP, the “shrunken log2 fold change” value is 0.39.

As to RRIRFRPPRLPRPRPRPTECPRP, the “shrunken log2 fold change” value is -0.0986.

As for RRIRLRPPRLPRPRPRPSAKPRP, the “shrunken log2 fold change” value is -0.0639.

Turning to RRIRERPPRLPRPRPRPAQDPRP, the “shrunken log2 fold change” value was 0.00521.

As for RRIRARPPRLPRPRPRPYFVPRP, the “shrunken log2 fold change” value is -0.122.

With RRIRTRPPRLPRPRPRPETHPRP, the “shrunken log2 fold change” value was 0.179.
